Source: US20080293632

Molecular target: SHOX full length (Homo sapiens) (UniProt O15266)
Assay: cell_activity
Conditions: luciferase

Sequence of SHOX full length (Homo sapiens) (O15266 whole entry): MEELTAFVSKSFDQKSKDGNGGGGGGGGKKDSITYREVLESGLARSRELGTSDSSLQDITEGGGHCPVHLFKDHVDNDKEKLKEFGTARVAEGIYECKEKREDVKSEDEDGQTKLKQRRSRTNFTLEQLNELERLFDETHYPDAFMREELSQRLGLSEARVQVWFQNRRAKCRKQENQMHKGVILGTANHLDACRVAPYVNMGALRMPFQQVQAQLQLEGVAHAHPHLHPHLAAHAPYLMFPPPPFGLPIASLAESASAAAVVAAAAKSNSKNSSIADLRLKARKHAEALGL

For “p3XG reporter (SHOX binding site before SV40 core promoter)”, the activity (fold induction) was 2.
“BNP 5' flanking region reporter (BNP for / BNP rev)” gave an activity (fold induction) (forward orientation, reverse 8-fold) of 10.
